Laboratory results as given in PMC5800367.

Columns and labels:
[1] = biological target: Recombinant human C5a (Homo sapiens) (UniProt P01031); assay: kinetic exclusion assay
[2] = biological target: Serum purified human C5 (Homo sapiens) (UniProt P01031); assay: DELFIA biochemical competition assay
[3] = biological target: Recombinant human C5a (Homo sapiens) (UniProt P01031); assay: DELFIA biochemical competition assay
[4] = biological target: Serum purified Cynomolgus C5a (Macaca fascicularis); assay: SPR
[5] = biological target: Recombinant Cynomolgus C5adesArg (Macaca fascicularis); assay: SPR
[6] = biological target: Recombinant human C5a (Homo sapiens) (UniProt P01031); assay: SPR
[7] = biological target: Serum purified human C5a (Homo sapiens) (UniProt P01031); assay: SPR

## MEDI7814 (antibody)
[1]
  Kd: 0.004 nM
[2]
  IC50: 0.6 nM
[3]
  IC50: 0.3 nM
[4]
  koff: 0.000154 s⁻¹
  kon: 8.08e+06 M⁻¹ s⁻¹
[5]
  Kd: 0.01 nM
  koff: 0.000144 s⁻¹
  kon: 1.51e+07 M⁻¹ s⁻¹
[6]
  Kd: 0.014 nM
  koff: 0.000251 s⁻¹
  kon: 1.74e+07 M⁻¹ s⁻¹
[7]
  Kd: 0.008 nM
  koff: 0.000165 s⁻¹
  kon: 2.18e+07 M⁻¹ s⁻¹
